Reference: patent US10793871B2, “Nucleic acid molecule encoding glei protein variant with increased phytic acid sensitivity and use thereof” (University-Industry Foundation, Yonsei University, priority 2015, dated 2020)

T1: Dbp5 ATPase (Saccharomyces cerevisiae, UniProt P20449+Q12315)
T1 sequence (P20449 1-482): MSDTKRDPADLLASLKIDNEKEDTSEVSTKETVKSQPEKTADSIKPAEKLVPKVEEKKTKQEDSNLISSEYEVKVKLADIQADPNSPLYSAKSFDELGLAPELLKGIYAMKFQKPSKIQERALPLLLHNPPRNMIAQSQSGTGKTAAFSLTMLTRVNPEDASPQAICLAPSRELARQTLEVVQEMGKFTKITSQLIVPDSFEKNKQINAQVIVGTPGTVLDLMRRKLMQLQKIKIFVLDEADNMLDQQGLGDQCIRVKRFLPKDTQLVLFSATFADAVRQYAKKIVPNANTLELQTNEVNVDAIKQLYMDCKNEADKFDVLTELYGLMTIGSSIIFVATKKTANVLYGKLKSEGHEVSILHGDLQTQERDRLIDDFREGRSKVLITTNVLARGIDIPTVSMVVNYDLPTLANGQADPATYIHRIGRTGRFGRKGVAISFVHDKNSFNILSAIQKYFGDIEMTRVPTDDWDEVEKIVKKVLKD
T1 sequence (Q12315 1-538): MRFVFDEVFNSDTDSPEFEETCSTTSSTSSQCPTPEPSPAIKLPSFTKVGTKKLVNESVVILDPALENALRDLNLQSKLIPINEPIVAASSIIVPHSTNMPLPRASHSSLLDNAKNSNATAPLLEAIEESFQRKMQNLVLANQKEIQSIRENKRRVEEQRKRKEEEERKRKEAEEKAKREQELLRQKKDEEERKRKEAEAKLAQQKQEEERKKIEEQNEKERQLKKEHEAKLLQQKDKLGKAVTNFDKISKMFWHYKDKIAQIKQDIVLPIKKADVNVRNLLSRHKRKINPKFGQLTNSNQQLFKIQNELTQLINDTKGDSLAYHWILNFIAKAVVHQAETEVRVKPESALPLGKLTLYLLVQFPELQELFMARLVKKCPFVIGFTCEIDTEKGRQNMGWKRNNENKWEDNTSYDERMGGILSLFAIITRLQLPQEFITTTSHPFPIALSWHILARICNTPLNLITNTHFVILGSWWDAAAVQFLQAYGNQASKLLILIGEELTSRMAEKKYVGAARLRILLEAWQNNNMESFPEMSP

T2: LOS4 ATPase (Arabidopsis thaliana, UniProt Q0WPZ7)
T2 construct: LOS4 was cloned into a pET-29a vector for His fusion; made in house; host or cells: Escherichia coli Rosetta (DE3) for LOS4-His; BL21 (DE3) for MBP-Gle1C
T2 sequence (Q0WPZ7 244-611): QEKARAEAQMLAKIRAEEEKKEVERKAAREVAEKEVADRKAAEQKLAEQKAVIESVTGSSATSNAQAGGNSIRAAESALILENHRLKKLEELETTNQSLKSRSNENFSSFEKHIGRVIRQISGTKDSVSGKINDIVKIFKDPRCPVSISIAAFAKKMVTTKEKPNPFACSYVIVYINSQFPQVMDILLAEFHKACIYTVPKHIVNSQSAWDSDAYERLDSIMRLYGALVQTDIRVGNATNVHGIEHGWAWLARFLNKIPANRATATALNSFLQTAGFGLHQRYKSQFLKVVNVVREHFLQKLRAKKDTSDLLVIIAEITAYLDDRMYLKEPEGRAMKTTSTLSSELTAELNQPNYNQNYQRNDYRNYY

B1: MBP-Gle1C: MBP fusion protein of the carboxyl-terminal domain of Gle1 (amino acid residues 244-611), wild type (protein)
chain: T2 sequence (Q0WPZ7 244-611)

Legend:
Dbp5 ATPase = biological target: T1, Dbp5 ATPase; conditions: yeast; InsP6 100 nM added to Gle1 and RNA; cited from earlier work
LOS4 ATPase [1] = assay: Steady-state ATPase assay of LOS4-His; type: biochemical, Arabidopsis thaliana
Description: (§1) A steady-state ATPase assay was performed as described by Alcázar-Román et al. (Inositol hexakisphosphate and Gle1 activate the DEAD-box protein Dbp5 for nuclear mRNA export. Nat. Cell Biol. 8: 711-716, 2006) with slight modifications. The ATPase assay was performed with a LOS4-His protein in a 96-well plate using a buffer containing 20 mM HEPES (pH 7.5), 150 mM NaCl, 3 mM MgCl2, 1 mM DTT, 2 mM ATP, 6 mM phosphoenolpyruvate, 1.2 mM NADH, 1 mg/ml BSA and 2% (v/v) pyruvate kinase/lactate dihydrogenase (Sigma-Aldrich) in a total volume of 100 μl. Polyadenylic acid was added at 50 μg/ml or different concentrations as described above. Absorbance at 340 nm was measured using a VersaMax absorbance microplate reader (Molecular Devices), and the data were analyzed using SoftMax Pro software (Molecular Devices).
(§2) Gle1 and Gle1C (aa residues 244-611) were cloned into a pMAL C2X vector (New England Biolabs) for MBP fusion, LOS4 was cloned into a pET-29a vector for His fusion. MBP-Gle1 and MBP-Gle1C proteins were expressed in a BL21 (DE3) strain, and LOS4-His proteins were expressed in a Rosseta (DE3) strain of Escherichia coli. Cells were grown at 37° C. to an A600 of 0.4, shifted to 16° C., and induced by 0.25 mM IPTG for 16 hours. The MBP- and His-fusion proteins were purified following the manufacturer's introductions using MBP Excellose (Bioprogen) and His60 Ni Superflow™ resin (Clontech), respectively.

LOS4 ATPase [2] = biological target: T2, LOS4 ATPase; assay: Steady-state ATPase assay of LOS4-His; type: biochemical; conditions: MBP-Gle1C alone (2 μM), without LOS4
Description: as §1, §2

Molecule	additional increase in Dbp5 ATPase activity (Dbp5 ATPase)	additional increase in LOS4 activity by InsP6 (LOS4 ATPase [1]; InsP6 10 μM added to Gle1 and RNA (FIG. 5B))	increase of LOS4 ATPase activity (LOS4 ATPase [1]; LOS4-His 1 μM, ATP 2 mM, RNA 50 μg/ml, MBP-Gle1 2 μM plus 10 μM InsP6)	intrinsic ATPase activity (LOS4 ATPase [2])	LOS4-His ATPase activity on addition of increasing amounts of protein (LOS4 ATPase [1]; 0-4 μM MBP-Gle1C, 1 μM LOS4-His, 2 mM ATP, RNA (FIG. 4C))	stimulation of LOS4 ATPase activity in the absence of InsP6 (LOS4 ATPase [1]; 1 μM LOS4-His, 2 mM ATP, RNA, 2 μM MBP-Gle1C or variant, no InsP6)	increase in the overall catalytic rate of LOS4 (LOS4 ATPase [1]; LOS4-His 1 μM with MBP-Gle1C 2 μM vs LOS4-His alone)	apparent kcat of LOS4-His (LOS4 ATPase [1]; LOS4-His (1 μM) with MBP-Gle1C (2 μM), 0-2 mM ATP)	maximal increase in LOS4 ATPase activity with RNA (LOS4 ATPase [1]; LOS4-His:MBP-Gle1C 1:2, addition of RNA (polyadenylic acid) at different concentrations)	InsP6 concentration at which LOS4-stimulating activity increases above basal (LOS4 ATPase [1]; with RNA, InsP6 0-100 μM)	InsP6 concentration giving maximum LOS4-stimulating activity (LOS4 ATPase [1]; with RNA, InsP6 0-100 μM)	InsP6 concentrations at which only basal LOS4-stimulating activity is maintained (LOS4 ATPase [1]; with RNA, InsP6 0-100 μM)
O=P(O)(O)O[C@H]1[C@H](OP(=O)(O)O)[C@@H](OP(=O)(O)O)[C@H](OP(=O)(O)O)[C@@H](OP(=O)(O)O)[C@H]1OP(=O)(O)O [InsP6, Myo-inositol-1,2,3,4,5,6-hexakisphosphate, reference compound]	3- to 4 fold	30%	> 4 fold	–	–	–	–	–	–	–	–	–
B1	–	–	–	did not show intrinsic ATPase activity	activated LOS4-His ATPase activity in a concentration-dependent manner	activated LOS4 ATPase activity to similar degrees	approximately two-fold	0.565 s⁻¹	~3 fold	1 µM	10 µM	1 to 100 nM
